Data on five molecules can be found in patent US20250154279A1 (BEIGENE, published 2025).

The assay deals with T1, human CD137 (recombinant antigen of the ELISA of Example 2 and the SPR of Example 3; construct not stated) (human, UniProt Q07011 24-186, limits assumed).
T1 construct: also called huCD137
The assay can be described thus: SPR. In general terms: SPR reads the build-up and loss of mass on a sensor chip optically.

B1: BGA-3726 (BGA-6582-Q46E) (VHH)
chain: EPKSSDKTHTCPPCPAPPAAGPSVFLFPPKPKDTLMISRTPEVTCVVVDVSHEDPEVKFNWYVDGVEVHNAKTKPREEQYNSTYRVVSVLTVLHQDWLNGKEYKCKVSNKALAAPIEKTISKAKGQPREPQVYTLPPSREEMTKNQVSLTCLVKGFYPSDIAVEWESNGQPENNYKTTPPVLDSDGSFFLYSKLTVDKSRWQQGNVFSCSVMHEALHNHYTQKSLSLSPGKGGGGSEVQLLESGGGLVQPGGSLRLSCAASGRTFDNYAVGWFRQAPGKEREYVGTYWSGYAHYGDFENNRFTISRDNSKNTVYLQMNSLRAEDTAVYYCAISLKYPMATVTPDYQGQGTLVTVSS
The Kd is the equilibrium constant for the complex coming apart. For orientation: koff means the rate constant with which the complex falls apart. The term kon denotes a measure of how fast the partners come together. In the case of B1, the Kd came out at 14.3 nM, the koff stood at 0.000432 s⁻¹ and the kon was determined as 30200 M⁻¹ s⁻¹.

B2: BGA-6582-F37V (VHH)
chain: EPKSSDKTHTCPPCPAPPAAGPSVFLFPPKPKDTLMISRTPEVTCVVVDVSHEDPEVKFNWYVDGVEVHNAKTKPREEQYNSTYRVVSVLTVLHQDWLNGKEYKCKVSNKALAAPIEKTISKAKGQPREPQVYTLPPSREEMTKNQVSLTCLVKGFYPSDIAVEWESNGQPENNYKTTPPVLDSDGSFFLYSKLTVDKSRWQQGNVFSCSVMHEALHNHYTQKSLSLSPGKGGGGSEVQLLESGGGLVQPGGSLRLSCAASGRTFDNYAVGWVRQAPGKERQYVGTYWSGYAHYGDFENNRFTISRDNSKNTVYLQMNSLRAEDTAVYYCAISLKYPMATVTPDYQGQGTLVTVSS
For the molecule B2, the binding result is given as “no binding”.

B3: BGA-6582-I94K (VHH)
chain: EPKSSDKTHTCPPCPAPPAAGPSVFLFPPKPKDTLMISRTPEVTCVVVDVSHEDPEVKFNWYVDGVEVHNAKTKPREEQYNSTYRVVSVLTVLHQDWLNGKEYKCKVSNKALAAPIEKTISKAKGQPREPQVYTLPPSREEMTKNQVSLTCLVKGFYPSDIAVEWESNGQPENNYKTTPPVLDSDGSFFLYSKLTVDKSRWQQGNVFSCSVMHEALHNHYTQKSLSLSPGKGGGGSEVQLLESGGGLVQPGGSLRLSCAASGRTFDNYAVGWFRQAPGKERQYVGTYWSGYAHYGDFENNRFTISRDNSKNTVYLQMNSLRAEDTAVYYCAKSLKYPMATVTPDYQGQGTLVTVSS
For the molecule B3, the binding result was “no binding”.

B4: BGA-6582-G49S (VHH)
chain: EPKSSDKTHTCPPCPAPPAAGPSVFLFPPKPKDTLMISRTPEVTCVVVDVSHEDPEVKFNWYVDGVEVHNAKTKPREEQYNSTYRVVSVLTVLHQDWLNGKEYKCKVSNKALAAPIEKTISKAKGQPREPQVYTLPPSREEMTKNQVSLTCLVKGFYPSDIAVEWESNGQPENNYKTTPPVLDSDGSFFLYSKLTVDKSRWQQGNVFSCSVMHEALHNHYTQKSLSLSPGKGGGGSEVQLLESGGGLVQPGGSLRLSCAASGRTFDNYAVGWFRQAPGKERQYVSTYWSGYAHYGDFENNRFTISRDNSKNTVYLQMNSLRAEDTAVYYCAISLKYPMATVTPDYQGQGTLVTVSS
B4: the binding result is reported as “no binding”.

B5: BGA-6582-E44G (VHH)
chain: EPKSSDKTHTCPPCPAPPAAGPSVFLFPPKPKDTLMISRTPEVTCVVVDVSHEDPEVKFNWYVDGVEVHNAKTKPREEQYNSTYRVVSVLTVLHQDWLNGKEYKCKVSNKALAAPIEKTISKAKGQPREPQVYTLPPSREEMTKNQVSLTCLVKGFYPSDIAVEWESNGQPENNYKTTPPVLDSDGSFFLYSKLTVDKSRWQQGNVFSCSVMHEALHNHYTQKSLSLSPGKGGGGSEVQLLESGGGLVQPGGSLRLSCAASGRTFDNYAVGWFRQAPGKGRQYVGTYWSGYAHYGDFENNRFTISRDNSKNTVYLQMNSLRAEDTAVYYCAISLKYPMATVTPDYQGQGTLVTVSS
Turning to B5, the Kd came to 9.16 nM, the koff was determined as 0.000242 s⁻¹ and the kon amounted to 26400 M⁻¹ s⁻¹.
